In patent publication US20240374685A1, “METHODS OF TREATING LOCALLY ADVANCED OR METASTATIC PANCREATIC ADENOCARCINOMA USING AXL DECOY RECEPTORS AS FIRST-LINE THERAPY” (Aravive Inc, priority 2021, published 2024):

Experiments:
[1] = system: metastatic pancreatic adenocarcinoma; settings: cited from earlier work
[2] = Pharmacokinetics in the cynomolgus monkey; assay type: in vivo; settings: IV
From the text: The pharmacokinetics (PK) and toxicokinetics of AVB-S6-500 and pharmacodynamics (PD) of growth arrest specific-6 protein (GAS6) have been investigated in mice (intraperitoneal [IP] and intravenous [IV] routes) and monkeys (IV route) following single and repeat dosing. The PK profile of AVB-S6-500 is compatible with target-mediated drug disposition (TMDD) with 2 parallel elimination paths: normal clearance of IgG and second order that is saturable and fits the typical 2-compartment model. […] Using the TMDD model (Dirks, N. A., Clinical Pharmacokinetics, 633-659, 2010), the human dose estimated to be efficacious may range from 1 mg/kg (to ensure GAS6 levels remain at least 90% less than baseline) to 20 mg/kg (to ensure 99% abrogation of GAS6 and allowing for a 3-fold increase in GAS6 levels in patients with cancer relative to normal levels). This model was used to select first-in-human dosing, and an external validation showing good agreement between projections and clinical observations has been published (Bonifacio, L., Clinical and Translational Science, 1-8, 2019).

[3] = system: mouse; assay: 3-month mouse toxicity study; assay type: in vivo
Protocol: There were no clinical observations, no changes in urinalysis parameters, no ophthalmology signs, and no macroscopic or microscopic observations of significance related to the administration of AVB-S6-500 at doses up to the NOAEL of 200 mg/kg/week.

[4] = system: locally advanced, recurrent, or metastatic 1L pancreatic adenocarcinoma; assay: Phase 1b study of AVB-S6-500 plus nab-paclitaxel and gemcitabine
Protocol: The AVB-S6-500 volume is adjusted according to the subject's weight and diluted prior to infusion.
On days when all three drugs are administered, the sequence of administration is AVB-S6-500 infusion first followed by at least a 30-minute observation period, then nab-paclitaxel immediately followed by gemcitabine. AVB-S6-500 (15 mg/kg) will be administered by a 1-hour IV infusion on Days 1 and 15 of each 28-day cycle. Subjects will receive premedication with anti-H1 antagonists (anti-H1) and anti-H2 antagonists (anti-H2) (steroids optional) prior to administration of AVB-S6-500 to reduce the risk and severity of infusion reactions. Nab-paclitaxel (125 mg/m2) will be administered by a 30-40-minute IV infusion on Days 1, 8, and 15 of each 28-day cycle. Immediately following nab-paclitaxel, gemcitabine (1000 mg/m2) will be administered by a 30-minute IV infusion on Days 1, 8, and 15 of each 28-day cycle. Appropriate premedication with corticosteroids, diphenhydramine, and H2 antagonists (as per institutional practice, with IV antihistamines and steroids strongly recommended) should be administered prior to administration of nab-paclitaxel and gemcitabine.
The Ph1b portion of this study is a multicenter, open-label, single treatment arm group design to evaluate the safety, tolerability, and preliminary efficacy of AVB-S6-500 in combination with nab-paclitaxel and gemcitabine in subjects with locally advanced, recurrent, or metastatic 1L pancreatic adenocarcinoma.

[5] = biological target: T1, GAS6 (Homo sapiens, UniProt Q14393); assay: Binding affinity to GAS6
T1 sequence (Q14393 31-678): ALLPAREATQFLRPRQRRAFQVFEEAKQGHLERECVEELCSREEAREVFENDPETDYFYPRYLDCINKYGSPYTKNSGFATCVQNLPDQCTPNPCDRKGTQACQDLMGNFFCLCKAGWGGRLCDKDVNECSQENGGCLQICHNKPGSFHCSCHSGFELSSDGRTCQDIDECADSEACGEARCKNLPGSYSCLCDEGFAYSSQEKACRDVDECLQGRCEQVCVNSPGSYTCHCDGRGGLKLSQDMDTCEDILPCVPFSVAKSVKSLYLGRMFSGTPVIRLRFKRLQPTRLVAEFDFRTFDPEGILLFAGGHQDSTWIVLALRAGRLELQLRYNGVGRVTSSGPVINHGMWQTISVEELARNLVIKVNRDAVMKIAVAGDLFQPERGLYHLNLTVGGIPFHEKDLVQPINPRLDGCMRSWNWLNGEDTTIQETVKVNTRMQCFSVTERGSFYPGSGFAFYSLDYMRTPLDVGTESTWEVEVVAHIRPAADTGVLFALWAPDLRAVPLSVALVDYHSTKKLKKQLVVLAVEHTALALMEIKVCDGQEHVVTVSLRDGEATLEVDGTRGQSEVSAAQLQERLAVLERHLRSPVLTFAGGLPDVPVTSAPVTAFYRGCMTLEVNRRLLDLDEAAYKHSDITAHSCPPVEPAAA

[6] = system: tumor cells
[7] = system: pancreatic (PDA1-1) models; assay: Pancreatic mouse models; assay type: in vivo
[8] = system: platinum-resistant, recurrent ovarian cancer; assay: Ph1b trial in platinum-resistant, recurrent ovarian cancer; assay type: in vivo, human
Protocol: AVB-S6-500 was evaluated in a Ph1b trial in combination with either paclitaxel or pegylated liposomal doxorubicin in subjects with platinum-resistant, recurrent ovarian cancer. Fifty-three subjects were dosed with AVB-S6-500 at doses ranging from 10 to 20 mg/kg once every 2 weeks in combination with their physician-chosen chemotherapy. […] All infusion reactions have been Grade 1 or 2, none met serious criteria, and all resolved without sequelae.

[9] = system: healthy volunteers; assay: First-in-human Phase 1 single ascending dose and repeat-dose study; assay type: in vivo
Protocol: Single dose cohorts of 1, 2.5, 5, and 10 mg/kg were evaluated as well as 1 RD cohort dosed with 5 mg/kg once weekly for 4 weeks.

[10] = system: aggressive human cancers; settings: cited from earlier work
[11] = system: aggressive human cancers; assay: Preclinical (nonclinical) tumor models; assay type: in vivo, mouse
[12] = system: monkey; assay: 3-month monkey toxicity study; assay type: in vivo
[13] = system: highly metastatic cells; assay: AXL signaled invasion and migration in vitro; assay type: cell-based
[14] = clinical data from prior studies of AVB-S6-500
[15] = number of the 5 subjects at 15 mg/kg, with chemotherapy

## Nc1ccn([C@@H]2O[C@H](CO)[C@@H](O)C2(F)F)c(=O)n1 [gemcitabine]
[1]; 861 subjects randomized
  OS: 6.7 months
[1]; all grades
  Sepsis: 2%
[1]; in vivo
  Fatal events: 4%
  median progression-free survival: 3.7 months
  pneumonitis: 1%
  proportion of patients with SAEs: 43%
  response rate according to independent review: 7%

## AVB-S6-500: soluble AXL variant polypeptide fusion protein comprising an Fc domain, a linker, lacks a functional FN domain, SEQ ID NO: 2
[2]; doses above 5 mg/kg
  clearance: lower
  half-life: longer
  volume of distribution: larger
[2]; doses below 5 mg/kg
  clearance: high
  half-life: short
[3]; mouse, in vivo
  mortalities: no mortalities
[3]; twice-weekly slow bolus IV infusion
  NOAEL: 200 mg/kg/week
[3]; twice-weekly slow bolus IV infusion, 25, 50, 100 mg/kg
  no-observed-adverse-effect-level (NOAEL): at least 100 mg/kg/dose
[4]; AVB-S6-500 related, N = 21
  patients with Grade 4 or 5 adverse effects: no patients
[4]; N = 21
  AEs Leading to AVB-S6-500 Treatment Discontinuation, events: fatigue and sepsis
  AVB-S6-500-Related Deaths: no AVB-S6-500 related deaths
[4]; patients (% of N = 21)
  AEs Leading to AVB-S6-500 Treatment Discontinuation: 2
  AEs of Special Interest (Infusion Related Reactions): 3
  Grade 3 Adverse Effects Related to AVB-S6-500: 6
[5]
  apparent affinity to GAS6: 93-324 femtomolar
  higher affinity than wild-type (WT) AXL: approximately 200 fold
[6]
  direct cytotoxicity: not directly cytotoxic
[7]; PDA1-1 models, combined with gemcitabine
  metastatic tumor weight and number: Significant reductions
[7]; combined with gemcitabine
  fibrosis: substantially decreased
  survival: prolonged
[7]; monotherapy
  metastasis development: decrease in metastasis development
[8]; 10 to 20 mg/kg every 2 weeks with paclitaxel or pegylated liposomal doxorubicin, 53 subjects
  dose-limiting toxicities: No dose-limiting toxicities were observed
[8]; all infusion reactions
  grade of infusion reactions: Grade 1 or 2
[8]; [14]
  toxicity, anemia: 21%
  toxicity, fatigue: 26%
  toxicity, infusion reaction: 21%
  toxicity, nausea: 13%
[8]; [15]
  complete response (CR): 1
  partial responses (PRs): 2
[9]; human, in vivo
  maximum tolerated dose (MTD): not reached
[9]; in vivo
  dose related AEs or SAEs: no dose related AEs or SAEs
[9]; single 1, 2.5, 5, 10 mg/kg, 5 mg/kg weekly for 4 weeks, IV over 60 minutes
  tolerability: well tolerated at all doses
[10]; mouse, in vivo
  toxicity in pharmacology studies: no toxicity
[10]; nonclinical models
  antitumor efficacy compared with other anti-AXL small molecules in clinical development: superior antitumor efficacy
[11]; dosing 4-7 days after tumor inoculation, small tumors established in the mouse
  effect on tumor cells in vivo: regression of tumor cells
[11]; preclinical models of aggressive human cancers
  metastatic disease: inhibiting metastatic disease
[12]; monkey, in vivo
  clinical pathology changes: non-dose-dependent clinical pathology changes seen and those were consistent with an immune response in monkeys to the human AVB-S6-500 protein
  mortalities: no mortalities
[12]; once-weekly 30-minute IV infusion, 50, 100, 150 mg/kg
  NOAEL: at least 150 mg/kg/dose
[13]
  AXL signaled invasion and migration: dramatically reducing AXL signaled invasion and migration
